Source: publication PMC12416549 (2024)
Substitutions are numbered along the chain they refer to. Names and notes keep the numbering of the source.

T1: TNFR1 (Homo sapiens, UniProt P19438)
T1 chain: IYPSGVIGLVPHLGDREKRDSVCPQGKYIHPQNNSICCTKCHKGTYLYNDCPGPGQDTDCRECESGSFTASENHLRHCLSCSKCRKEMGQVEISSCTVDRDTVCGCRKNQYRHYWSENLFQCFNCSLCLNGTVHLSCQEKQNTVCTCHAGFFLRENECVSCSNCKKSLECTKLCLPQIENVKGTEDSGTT

B1: E14C (designed binder)
chain: SMEEEVEKAAKEYCKKKKEAIEKHLEKLKAKDKEAAERFLKELEEAAKEYAKDEAKTMSEEEAKRRAKKYKEKVLLSELSEEEQKEIKEAEEKLVRTILKYVEEAAK
B2: R65S (designed binder)
chain: B1 chain with C14E, R65S
B3: A51F (designed binder)
chain: B1 chain with C14E, A51F
B4: M58R (designed binder)
chain: B1 chain with C14E, M58R
B5: Y13E (designed binder)
chain: B1 chain with Y13E, C14E
B6: K56C (designed binder)
chain: B1 chain with C14E, K56C
B7: T57L (designed binder)
chain: B1 chain with C14E, T57L
B8: M2C (designed binder)
chain: B1 chain with M2C, C14E
B9: V95Y (designed binder)
chain: B1 chain with C14E, V95Y
B10: K73M (designed binder)
chain: B1 chain with C14E, K73M
B11: A20T (designed binder)
chain: B1 chain with C14E, A20T
B12: A67F (designed binder)
chain: B1 chain with C14E, A67F
B13: E86S (designed binder)
chain: B1 chain with C14E, E86S
B14: E82T (designed binder)
chain: B1 chain with C14E, E82T
B15: E44Q (designed binder)
chain: B1 chain with C14E, E44Q
B16: E45F (designed binder)
chain: B1 chain with C14E, E45F
B17: E103R (designed binder)
chain: B1 chain with C14E, E103R
B18: V95R (designed binder)
chain: B1 chain with C14E, V95R
B19: S59L (designed binder)
chain: B1 chain with C14E, S59L
B20: A30L (designed binder)
chain: B1 chain with C14E, A30L
B21: R96S (designed binder)
chain: B1 chain with C14E, R96S
B22: K18F (designed binder)
chain: B1 chain with C14E, K18F
B23: A9W (designed binder)
chain: B1 chain with A9W, C14E
B24: K52S (designed binder)
chain: B1 chain with C14E, K52S
B25: L94S (designed binder)
chain: B1 chain with C14E, L94S
B26: S80Y (designed binder)
chain: B1 chain with C14E, S80Y
B27: S77F (designed binder)
chain: B1 chain with C14E, S77F
B28: E81Y (designed binder)
chain: B1 chain with C14E, E81Y
B29: A105F (designed binder)
chain: B1 chain with C14E, A105F
B30: A90G (designed binder)
chain: B1 chain with C14E, A90G
B31: E49W (designed binder)
chain: B1 chain with C14E, E49W
B32: K71P (designed binder)
chain: B1 chain with C14E, K71P
B33: K18G (designed binder)
chain: B1 chain with C14E, K18G
B34: Y13W (designed binder)
chain: B1 chain with Y13W, C14E
B35: A9N (designed binder)
chain: B1 chain with A9N, C14E
B36: K23H (designed binder)
chain: B1 chain with C14E, K23H
B37: K52D (designed binder)
chain: B1 chain with C14E, K52D
B38: L28A (designed binder)
chain: B1 chain with C14E, L28A
B39: E86R (designed binder)
chain: B1 chain with C14E, E86R
B40: E49C (designed binder)
chain: B1 chain with C14E, E49C
B41: E81C (designed binder)
chain: B1 chain with C14E, E81C
B42: M2T (designed binder)
chain: B1 chain with M2T, C14E
B43: A47C (designed binder)
chain: B1 chain with C14E, A47C
B44: Y70C (designed binder)
chain: B1 chain with C14E, Y70C
B45: R38K (designed binder)
chain: B1 chain with C14E, R38K
B46: E26K (designed binder)
chain: B1 chain with C14E, E26K
B47: K31T (designed binder)
chain: B1 chain with C14E, K31T
B48: E45P (designed binder)
chain: B1 chain with C14E, E45P
B49: D32E (designed binder)
chain: B1 chain with C14E, D32E
B50: E42D (designed binder)
chain: B1 chain with C14E, E42D
B51: A35F (designed binder)
chain: B1 chain with C14E, A35F
B52: M58Q (designed binder)
chain: B1 chain with C14E, M58Q
B53: E82C (designed binder)
chain: B1 chain with C14E, E82C
B54: E62A (designed binder)
chain: B1 chain with C14E, E62A
B55: K31H (designed binder)
chain: B1 chain with C14E, K31H
B56: E89M (designed binder)
chain: B1 chain with C14E, E89M
B57: R96T (designed binder)
chain: B1 chain with C14E, R96T
B58: A67N (designed binder)
chain: B1 chain with C14E, A67N
B59: L94T (designed binder)
chain: B1 chain with C14E, L94T

Molecular target: T1, TNFR1
Assay: yeast display SC50

Row | apparent Kd (screen) [nM] | Binder
1 | 9.41 | B1
2 | 1.69 | B2
3 | 0.593 | B3
4 | 12.5 | B4
5 | 1.54 | B5
6 | 10.4 | B6
7 | 0.107 | B7
8 | 2.73 | B8
9 | 3 | B9
10 | 0.869 | B10
11 | 0.718 | B11
12 | 18.3 | B12
13 | 0.718 | B13
14 | 0.49 | B14
15 | 0.653 | B15
16 | 4.39 | B16
17 | 0.539 | B17
18 | 7.78 | B18
19 | 1.05 | B19
20 | 0.593 | B20

Row | apparent Kd (screen) [nM] | Binder
21 | 2.48 | B21
22 | 0.869 | B22
23 | 3 | B23
24 | 0.446 | B24
25 | 12.5 | B25
26 | 2.05 | B26
27 | 1.05 | B27
28 | 0.653 | B28
29 | 3 | B29
30 | 0.49 | B30
31 | 16.7 | B31
32 | 11.4 | B32
33 | 0.653 | B33
34 | 2.73 | B34
35 | 0.869 | B35
36 | 0.49 | B36
37 | 0.446 | B37
38 | 0.718 | B38
39 | 0.593 | B39
40 | 13.8 | B40

Row | apparent Kd (screen) [nM] | Binder
41 | 0.869 | B41
42 | 0.446 | B42
43 | 0.49 | B43
44 | 7.78 | B44
45 | 10.4 | B45
46 | 0.49 | B46
47 | 0.593 | B47
48 | 7.78 | B48
49 | 0.956 | B49
50 | 2.73 | B50
51 | 0.956 | B51
52 | 11.4 | B52
53 | 1.86 | B53
54 | 0.446 | B54
55 | 0.446 | B55
56 | 1.05 | B56
57 | 1.54 | B57
58 | 7.07 | B58
59 | 0.446 | B59
